Experimental data taken from patent US20230174596A1 (published 2023).

target: T1, hVEGF-A (8-109) (human, UniProt P15692 214-315); test: spot phage ELISA
T1 construct: residue numbers count on mature VEGF-A; dimer
T1 sequence (looked up): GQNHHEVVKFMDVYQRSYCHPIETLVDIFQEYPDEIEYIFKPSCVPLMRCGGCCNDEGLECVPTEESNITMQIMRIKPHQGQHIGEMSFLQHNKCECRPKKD

| Binder | ELISA | S/N |
| --- | --- | --- |
| GCKKWQWWYMCKQDSDCLAGCVCYPWTECG (designed binder) [VEGF_CKP4] | 2.6 | 35.3 |
| GCNIMLPFWGCGQSFECLAGCVCQYYQSCG (designed binder) [VEGF_CKP9.54.1] | 2.4 | 29.9 |
| GCKIMQPLWGCKQDSDCLAGCVCLWYDSCG (designed binder) [VEGF_CKP9.47] | 1 | 14.6 |
| GCQISQPFWGCKQDSDCLAGCVCHFYNSCG (designed binder) [VEGF_CKP9.3] | 1.6 | 24.5 |
| GCQLMHPFWGCKQDSDCLAGCVCHWYRSCG (designed binder) [VEGF_CKP8] | 3.9 | 59.4 |
| GCNIMLPFWGCGTNFLCLAGCVCQYYQSCG (designed binder) [VEGF_CKP9.54.31] | 2.3 | 32.5 |
| GCQLMQPFWGCKQDSDCLAGCVCRWYHSCG (designed binder) [VEGF_CKP9.L5.43] | 0.9 | 13.6 |
| GCNIMLPFWGCGPELNCLAGCVCQYYQSCG (designed binder) [VEGF_CKP9.54.12] | 2.4 | 38.8 |
| GCNIMLPFWGCQADYACLAGCVCQYYQSCG (designed binder) [VEGF_CKP9.54.14] | 2.5 | 23.5 |
| GCHRLQPLWGCKQDSDCLAGCVCHWYQSCG (designed binder) [VEGF_CKP9.L1.19] | 1.4 | 11.6 |
| GCNIMLPFWGCSRDFDCLAGCVCQYYQSCG (designed binder) [VEGF_CKP9.54.44] | 2.4 | 34.4 |
| GCQLMQPFWGCKQDSDCLAGCVCRWYNSCG (designed binder) [VEGF_CKP9.L5.7] | 1.4 | 18.9 |
| GCQLLEPMWGCKQDSDCLAGCVCHWYNSCG (designed binder) [VEGF_CKP9.9] | 1.1 | 19.7 |
| GCNPMLPFWGCKQDSDCLAGCVCHWYQSCG (designed binder) [VEGF_CKP9.L1.57] | 3.7 | 31.8 |
| GCRLLEPSWGCKQDSDCLAGCVCQWYQSCG (designed binder) [VEGF_CKP9.72] | 0.6 | 10 |
| GCNPMLPLWGCKQDSDCLAGCVCHWYQSCG (designed binder) [VEGF_CKP9.L1.78] | 3 | 25.1 |
| GCDIMQPLWGCKQDSDCLAGCVCHWYQSCG (designed binder) [VEGF_CKP9.L1.68] | 2 | 23.2 |
| GCDLMQPLWGCKQDSDCLAGCVCHWYQSCG (designed binder) [VEGF_CKP9.L1.76] | 2.5 | 17.4 |
| GCQLLQPLWGCKQDSDCLAGCVCRWYQSCG (designed binder) [VEGF_CKP9.71] | 1 | 16.5 |
| GCPRILMRCKQDSDCLAGCVCGPNGFCG [EETI-II] | 0.01 | 1.11 |

| Binder | ELISA | S/N |
| --- | --- | --- |
| GCNIMLPFWGCGWDQFCLAGCVCQYYQSCG (designed binder) [VEGF_CKP9.54.51] | 2.5 | 44.5 |
| GCHLFEPLWGCKQDSDCLAGCVCHWYQSCG (designed binder) [VEGF_CKP9.L1.2] | 1.6 | 12.5 |
| GCQVLQPSWGCKQDSDCLAGCVCHWYQSCG (designed binder) [VEGF_CKP9.L1.79] | 1.2 | 10 |
| GCQLMQPFWGCKQDSDCLAGCVCHWYQSCG (designed binder) [VEGF_CKP9.L5.18] | 1.6 | 20.4 |
| GCQVMQPAWGCKQDSDCLAGCVCHWYQSCG (designed binder) [VEGF_CKP9.L1.8] | 1.2 | 12.8 |
| GCALLQPLWGCKQDSDCLAGCVCRWYNSCG (designed binder) [VEGF_CKP9.69] | 1 | 14.3 |
| GCNIMLPFWGCNRDFLCLAGCVCQYYQSCG (designed binder) [VEGF_CKP9.54.48] | 2.5 | 34.9 |
| GCDVLQPFWGCKQDSDCLAGCVCHWYQSCG (designed binder) [VEGF_CKP9.2] | 2.4 | 31.1 |
| GCNLMHPFWGCKQDSDCLAGCVCHWYQSCG (designed binder) [VEGF_CKP9.51] | 1 | 11 |
| GCNIMLPFWGCGLDYDCLAGCVCQYYQSCG (designed binder) [VEGF_CKP9.54.2] | 0.1 | 26 |
| GCHLLLPLWGCKQDSDCLAGCVCRWYHSCG (designed binder) [VEGF_CKP9.76] | 1.3 | 15.5 |
| GCPAIQNWKEHPCKQDSDCLAGCVCSWWPSLCG (designed binder) [VEGF_CKP5] | 1.9 | 28.4 |
| GCQVMRPFWGCKQDSDCLAGCVCHWYQSCG (designed binder) [VEGF_CKP9.L1.7] | 1.5 | 8.9 |
| GCKLFEPLWGCKQDSDCLAGCVCRWYESCG (designed binder) [VEGF_CKP9.96] | 1.2 | 18.4 |
| GCKLLQPMWGCKQDSDCLAGCVCRWYQSCG (designed binder) [VEGF_CKP9.14] | 2 | 30.1 |
| GCQRTQPFWGCKQDSDCLAGCVCRWYQSCG (designed binder) [VEGF_CKP9.22] | 1.2 | 17.2 |
| GCNIMLPFWGCGVDYLCLAGCVCQYYQSCG (designed binder) [VEGF_CKP9.54.16] | 2.4 | 30.8 |
| GCDRMQPYWGCKQDSDCLAGCVCQWYKSCG (designed binder) [VEGF_CKP9.11] | 1.1 | 14.1 |
| GCRTPWEPHDITCKQDSDCLAGCVCGPNGFCG (designed binder) [VEGF_CKP11] | 4.1 | 57.5 |
| GCNVLLPLWGCKQDSDCLAGCVCHWYQSCG (designed binder) [VEGF_CKP9.L1.64] | 2.3 | 19.9 |
